The results in this text go back to US20240035010, “COMPOSITIONS COMPRISING A VARIANT POLYPEPTIDE AND USES THEREOF” (Arbor Biotechnologies, Inc., published 2024).

Numbering of substitutions follows the chain as printed.

Series [1] deals with T1, variant nuclease D55G/E736G combination (P14R, D32R, I61R, E311R, D55G, E736G).
T1 chain: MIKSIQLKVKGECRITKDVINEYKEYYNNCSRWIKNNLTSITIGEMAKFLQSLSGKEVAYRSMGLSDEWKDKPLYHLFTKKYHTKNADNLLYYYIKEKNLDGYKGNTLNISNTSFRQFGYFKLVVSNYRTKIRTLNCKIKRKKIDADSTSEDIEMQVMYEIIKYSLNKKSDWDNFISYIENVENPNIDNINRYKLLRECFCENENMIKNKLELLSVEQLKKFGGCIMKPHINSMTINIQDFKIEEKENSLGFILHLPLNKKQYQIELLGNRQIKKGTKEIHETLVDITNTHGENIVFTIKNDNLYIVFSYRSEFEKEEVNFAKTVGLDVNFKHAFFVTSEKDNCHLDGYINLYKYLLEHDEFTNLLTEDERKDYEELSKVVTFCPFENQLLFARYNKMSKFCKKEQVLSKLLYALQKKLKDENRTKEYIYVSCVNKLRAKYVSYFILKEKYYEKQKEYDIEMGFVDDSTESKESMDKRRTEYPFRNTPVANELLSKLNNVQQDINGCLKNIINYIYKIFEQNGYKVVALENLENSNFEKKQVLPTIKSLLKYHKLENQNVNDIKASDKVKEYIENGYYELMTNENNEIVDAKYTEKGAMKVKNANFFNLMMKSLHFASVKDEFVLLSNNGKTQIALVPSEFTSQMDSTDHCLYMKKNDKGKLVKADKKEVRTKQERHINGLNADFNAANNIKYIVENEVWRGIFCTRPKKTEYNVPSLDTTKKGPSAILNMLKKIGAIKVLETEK
Put plainly: cell_activity; PAM 5'-TTTG-3'. Particulars: tags: pcDNA3.1 expression. Put shortly: (§1)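 HEK293T cells were lipofected with nuclease plasmid (pcDNA3.1 backbone) plus RNA guide plasmid, with guide omitted in negative controls. After ~72 h cells were lysed in QuickExtract and % indels were derived from NGS reads, averaged over two bioreplicates and two technical replicates.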

The target in series [2] is T2, variant nuclease K35G combination (P14R, D32R, I61R, E311R, K35G).
T2 chain: T1 chain with K35G, G55D, G736E
Put plainly: cell_activity; PAM 5'-TTTG-3'. Particulars: tags: pcDNA3.1 expression. Put shortly: as §1

B1: AAVS1 crRNA ; AAVS1 target (ssRNA ; dsDNA)
RNA: CUUGUUGUAUAUGUCCUUUUAUAGGUAUUAAACAACUGAGAAUGGUGCGUCCUAGG
DNA 1: TGAGAATGGTGCGTCCTAGG
DNA 2: CCTAGGACGCACCATTCTCA
With B1, the indel activity in series [1] was 5.76 fold of WT; in series [2], 5.66 fold of WT.
